According to US20230147657A1 (INSERM INSTITUT NATIONAL DE LA SANT ET DE LA RECHERCHE M …, published 2023):
Where two headings read alike, the source gives them in different places. Blank lines part the entries; values can stand above or below the molecule they belong to.

Legend:
[1] = molecular target: T1, human CD45RC (human, UniProt P08575 26-1306); experiment: flow cytometry, EDTA whole blood, one of three healthy volunteers [3]
T1 construct: Native protein on human blood leukocytes / PBMC / T cells of healthy volunteers; also called hCD45RC
T1 sequence: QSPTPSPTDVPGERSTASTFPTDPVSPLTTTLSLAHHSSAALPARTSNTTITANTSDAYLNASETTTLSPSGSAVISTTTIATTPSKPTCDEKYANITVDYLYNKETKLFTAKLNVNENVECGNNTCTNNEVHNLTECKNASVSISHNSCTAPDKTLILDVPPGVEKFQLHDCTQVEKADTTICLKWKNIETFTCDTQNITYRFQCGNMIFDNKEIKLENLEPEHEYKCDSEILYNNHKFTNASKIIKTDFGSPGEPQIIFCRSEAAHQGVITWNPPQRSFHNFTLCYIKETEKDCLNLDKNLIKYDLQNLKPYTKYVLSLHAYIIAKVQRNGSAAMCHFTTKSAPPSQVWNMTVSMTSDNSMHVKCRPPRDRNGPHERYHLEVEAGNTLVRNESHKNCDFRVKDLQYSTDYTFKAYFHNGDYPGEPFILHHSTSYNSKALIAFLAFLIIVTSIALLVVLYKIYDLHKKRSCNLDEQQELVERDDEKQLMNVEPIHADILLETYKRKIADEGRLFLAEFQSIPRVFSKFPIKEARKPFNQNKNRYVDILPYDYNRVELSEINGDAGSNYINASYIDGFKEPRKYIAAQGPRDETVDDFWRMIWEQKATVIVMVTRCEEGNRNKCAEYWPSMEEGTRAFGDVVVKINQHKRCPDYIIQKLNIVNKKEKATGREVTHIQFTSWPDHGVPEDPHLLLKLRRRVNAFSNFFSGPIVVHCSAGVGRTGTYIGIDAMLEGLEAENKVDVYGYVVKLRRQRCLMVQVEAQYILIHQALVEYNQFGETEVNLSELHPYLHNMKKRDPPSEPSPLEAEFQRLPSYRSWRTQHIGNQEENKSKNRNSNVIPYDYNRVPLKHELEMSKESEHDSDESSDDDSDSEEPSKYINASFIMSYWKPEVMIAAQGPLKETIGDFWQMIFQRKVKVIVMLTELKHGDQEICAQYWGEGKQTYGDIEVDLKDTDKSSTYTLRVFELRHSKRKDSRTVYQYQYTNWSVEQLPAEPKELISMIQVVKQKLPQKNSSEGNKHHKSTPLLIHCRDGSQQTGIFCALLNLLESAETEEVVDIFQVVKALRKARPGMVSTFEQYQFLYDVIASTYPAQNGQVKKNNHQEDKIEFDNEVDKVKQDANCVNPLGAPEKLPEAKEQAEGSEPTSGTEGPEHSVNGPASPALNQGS

[2] = molecular target: T1, human CD45RC; experiment: flow cytometry, EDTA whole blood, one of three healthy volunteers; very few events [2]
[3] = molecular target: T1, human CD45RC; experiment: flow cytometry, EDTA whole blood, one of three healthy volunteers [2]
[4] = molecular target: T1, human CD45RC; experiment: flow cytometry, EDTA whole blood, one of three healthy volunteers [1]
[5] = molecular target: T1, human CD45RC; experiment: flow cytometry on T cells of human PBMC; biotin anti-human IgG + streptavidin PerCP-Cy5.5
[6] = molecular target: T1, human CD45RC; experiment: as above; remark: listed apart in the source
[7] = molecular target: T1, human CD45RC; experiment: as above; remark: listed apart in the source

% of basophils in the CD45RC high gate (top) [1]: 0% | % of basophils in the CD45RC intermediate/low gate (middle) [1]: 7.3% | % of basophils in the CD45RC negative gate (bottom) [1]: 92.7% | % of eosinophils in the CD45RC high gate (top) [1]: 0.47% | % of eosinophils in the CD45RC intermediate/low gate (middle) [1]: 90.5% | % of eosinophils in the CD45RC negative gate (bottom) [1]: 9.08% | % of mDC in the CD45RC high gate (top) [1]: 0% | % of mDC in the CD45RC intermediate/low gate (middle) [1]: 14.3% | % of mDC in the CD45RC negative gate (bottom) [1]: 85.7% | % of monocytes CD14intCD16+ in the CD45RC high gate (top) [1]: 6.45% | % of monocytes CD14intCD16+ in the CD45RC intermediate/low gate (middle) [1]: 87.7% | % of monocytes CD14intCD16+ in the CD45RC negative gate (bottom) [1]: 5.87% | % of neutrophils in the CD45RC high gate (top) [1]: 0.014% | % of neutrophils in the CD45RC intermediate/low gate (middle) [1]: 19.3% | % of neutrophils in the CD45RC negative gate (bottom) [1]: 80.7% | % of pDC in the CD45RC high gate (top) [1]: 1.84% | % of pDC in the CD45RC intermediate/low gate (middle) [1]: 97.9% | % of pDC in the CD45RC negative gate (bottom) [1]: 0.23% | % of ILC3 in the CD45RC high gate (top) [2]: 50% | % of ILC3 in the CD45RC intermediate/low gate (middle) [2]: 50% | % of ILC3 in the CD45RC negative gate (bottom) [2]: 0% | % of ILC1 in the CD45RC high gate (top) [3]: 9.3% | % of ILC1 in the CD45RC intermediate/low gate (middle) [3]: 27.5% | % of ILC1 in the CD45RC negative gate (bottom) [3]: 63.2% | % of ILC2 in the CD45RC high gate (top) [3]: 45% | % of ILC2 in the CD45RC intermediate/low gate (middle) [3]: 49.5% | % of ILC2 in the CD45RC negative gate (bottom) [3]: 5.5% | % of MAIT cells in the CD45RC high gate (top) [3]: 5.89% | % of MAIT cells in the CD45RC intermediate/low gate (middle) [3]: 71% | % of MAIT cells in the CD45RC negative gate (bottom) [3]: 23.2% | % of NKT cells in the CD45RC high gate (top) [3]: 34.4% | % of NKT cells in the CD45RC intermediate/low gate (middle) [3]: 54.2% | % of NKT cells in the CD45RC negative gate (bottom) [3]: 11.4% | % of iNKT cells in the CD45RC high gate (top) [3]: 24.1% | % of iNKT cells in the CD45RC intermediate/low gate (middle) [3]: 61.6% | % of iNKT cells in the CD45RC negative gate (bottom) [3]: 14.3% | % of monocytes CD14+ in the CD45RC high gate (top) [3]: 0.43% | % of monocytes CD14+ in the CD45RC intermediate/low gate (middle) [3]: 43.9% | % of monocytes CD14+ in the CD45RC negative gate (bottom) [3]: 55.6% | % of monocytes CD14highCD16- in the CD45RC high gate (top) [3]: 0.091% | % of monocytes CD14highCD16- in the CD45RC intermediate/low gate (middle) [3]: 38.3% | % of monocytes CD14highCD16- in the CD45RC negative gate (bottom) [3]: 61.6% | % of B cells in the CD45RC high gate (top) [4]: 79.9% | % of B cells in the CD45RC intermediate/low gate (middle) [4]: 20.1% | % of B cells in the CD45RC negative gate (bottom) [4]: 0% | % of CD3+ TCRab cells in the CD45RC high gate (top) [4]: 8.34% | % of CD3+ TCRab cells in the CD45RC intermediate/low gate (middle) [4]: 46.2% | % of CD3+ TCRab cells in the CD45RC negative gate (bottom) [4]: 45.5% | % of CD3+ TCRgd cells in the CD45RC high gate (top) [4]: 1.93% | % of CD3+ TCRgd cells in the CD45RC intermediate/low gate (middle) [4]: 90.6% | % of CD3+ TCRgd cells in the CD45RC negative gate (bottom) [4]: 7.46% | % of CD4+ T cells in the CD45RC high gate (top) [4]: 3.64% | % of CD4+ T cells in the CD45RC intermediate/low gate (middle) [4]: 47.2% | % of CD4+ T cells in the CD45RC negative gate (bottom) [4]: 49.2% | % of CD4+ Treg (CD25+CD127-) in the CD45RC high gate (top) [4]: 3.52% | % of CD4+ Treg (CD25+CD127-) in the CD45RC intermediate/low gate (middle) [4]: 19.8% | % of CD4+ Treg (CD25+CD127-) in the CD45RC negative gate (bottom) [4]: 76.7% | % of CD8+ T cells in the CD45RC high gate (top) [4]: 38.8% | % of CD8+ T cells in the CD45RC intermediate/low gate (middle) [4]: 39.7% | % of CD8+ T cells in the CD45RC negative gate (bottom) [4]: 21.5% | % of NK cells in the CD45RC high gate (top) [4]: 28.6% | % of NK cells in the CD45RC intermediate/low gate (middle) [4]: 70.4% | % of NK cells in the CD45RC negative gate (bottom) [4]: 1% | % of T cells in the CD45RC high gate (top) [4]: 7.43% | % of T cells in the CD45RC intermediate/low gate (middle) [4]: 49.7% | % of T cells in the CD45RC negative gate (bottom) [4]: 42.9%
Molecule: MT2 (murine anti-hCD45RC antibody, commercially available)

% of T cells in the CD45RC gate at 1 µg/mL [6]: 49.7% | % of T cells in the CD45RC gate at 2 µg/mL [6]: 48.9%
B3: Anti-45RC Variant I (antibody, human IgG1, kappa, V domains shown)
VH: QVQLVESGGGLVKPGGSLRLSCAASGYTFTNYYIGWIRQAPGKGLEWIGDIFPGGDYANSNEKVKGRFTLSADTAKNSAYLQMNSLRAEDTAVYYCVRRNFDYWGQGTLVTVSS
VL: DIQLTQSPSFLSASVGDRVTITCSASSSVSYMHWFQQKPGKAPKLWIYNTSNLPSGVPSRFSGSGSGTEYTLTISSLQPEDFATYYCQQRSSYPLTFGGGTKVEIKR
notes: also called humanized ABIS-45RC variant I

% of T cells in the CD45RC gate at 1 µg/mL [6]: 29.5% | % of T cells in the CD45RC gate at 2 µg/mL [6]: 13.2%
B6: Anti-45RC Variant H (antibody, human IgG1, kappa, V domains shown)
VH: B3 VH
VL: EIVLTQSPATLSLSPGERATLSCSASSSVSYMHWFQQKPGQAPRLWIYNTSNLPSGIPARFSGSGSGTDYTLTISSLEPEDFAVYYCQQRSSYPLTFGGGTKVEIKR
notes: also called humanized ABIS-45RC variant H

Continued, molecule first:

B1: Anti-45RC Variant A (antibody, human IgG1, kappa, V domains shown)
VH: QVQLVQSGAEVKKPGASVKVSCKASGYTFTNYYIGWVRQAPGQGLEWIGDIFPGGDYANSNEKFKGRVTLTADTSISTAYMELSRLRSDDTVVYYCVRRNFDYWGQGTLVTVSS
VL: B3 VL
notes: also called humanized ABIS-45RC variant A
% of T cells in the CD45RC gate at 1 µg/mL [5]: 58.2% | % of T cells in the CD45RC gate at 2 µg/mL [5]: 60.2%

B2: Anti-45RC Variant D (antibody, human IgG1, kappa, V domains shown)
VH: EVQLVQSGAEVKKPGESLKISCKASGYTFTNYYIGWVRQMPGKGLEWIGDIFPGGDYANSNEKFKGQVTLSADKSISTAYLQLSSLKASDTAMYYCVRRNFDYWGQGTLVTVSS
VL: B3 VL
notes: also called humanized ABIS-45RC variant D
% of T cells in the CD45RC gate at 1 µg/mL [5]: 57.2% | % of T cells in the CD45RC gate at 2 µg/mL [5]: 59.5%

B4: Anti-45RC Variant C (antibody, human IgG1, kappa, V domains shown)
VH: B1 VH
VL: B6 VL
notes: also called humanized ABIS-45RC variant C
% of T cells in the CD45RC gate at 1 µg/mL [5]: 63.3% | % of T cells in the CD45RC gate at 2 µg/mL [5]: 63.7%

B5: Anti-45RC Variant B (antibody, human IgG1, kappa, V domains shown)
VH: B1 VH
VL: EIVLTQSPDFQSVTPKEKVTITCSASSSVSYMHWFQQKPDQSPKLWIYNTSNLPSGVPSRFSGSGSGTDYTLTINSLEAEDAATYYCQQRSSYPLTFGGGTKVEIKR
notes: also called humanized ABIS-45RC variant B
% of T cells in the CD45RC gate at 1 µg/mL [5]: 43.9% | % of T cells in the CD45RC gate at 2 µg/mL [5]: 32.7%

B7: Anti-45RC Variant E (antibody, human IgG1, kappa, V domains shown)
VH: B2 VH
VL: B5 VL
notes: also called humanized ABIS-45RC variant E
% of T cells in the CD45RC gate at 1 µg/mL [7]: 53.7% | % of T cells in the CD45RC gate at 2 µg/mL [7]: 48.9%

B8: Anti-45RC Variant F (antibody, human IgG1, kappa, V domains shown)
VH: B2 VH
VL: B6 VL
notes: also called humanized ABIS-45RC variant F
% of T cells in the CD45RC gate at 1 µg/mL [7]: 58.8% | % of T cells in the CD45RC gate at 2 µg/mL [7]: 57.2%

B9: Anti-45RC Variant G (antibody, human IgG1, kappa, V domains shown)
VH: B3 VH
VL: B5 VL
notes: also called humanized ABIS-45RC variant G
% of T cells in the CD45RC gate at 1 µg/mL [7]: 55.7% | % of T cells in the CD45RC gate at 2 µg/mL [7]: 54.2%
